Experimental data taken from publication PMC9132996.

Each substance was assayed on PutA (proline utilization A) (Ralstonia solanacearum GMI1000) (assay: MST). Conditions: room temperature 30 min, buffer not stated.
solI promoter 324 bp was tested, and the Kd was 0.0127 µM.
With trpEG promoter 291 bp the Kd was 0.0171 µM.
Work on phcB promoter 327 bp yielded a Kd of 0.013 µM.
Substance epsA promoter 336 bp has a Kd of 0.0107 µM.
